From patent publication US20200031947A1

Target: cynomolgus GITR (cyGITR), soluble analyte (cynomolgus)
Test: SPR (Biacore T200), 37 C; antibody captured on anti-human Fc chip, GITR as analyte; 1:1 Langmuir fit

B1: h3G7 H1 (antibody, V domains shown)
VH: EVQLVESGGGLVQPGGSLRLSCAASGFTFSDYTMNWVRQAPGKGLEWVALINPYNGGIRYNQKFKGRFTISRDNAKNSLYLQMNSLRAEDTAVYYCARIGGYYDSMDYWGQGTLVTVSS
VL: DIQMTQSPSSLSASVGDRVTITCRASESVDNFGINFLNWYQQKPGKAPKLLIYAASNQGSGVPSRFSGSGSGTDFTLTISSLQPEDFATYYCQQSKELPWTFGGGTKVEIK
- Kd: > 100 nM
- koff: 0.078 s⁻¹
- t1/2: 9 s
